From US20210101960A1 come the findings set out here.

Assay [1] addresses opioid sensor based on the Mu-opioid receptor (cpGFP inserted into the Loop3 of the Mu-opioid receptor) (human). Put plainly: cell-based or functional assay.
For assay [2] the target is unchanged. In words: in situ fluorescence titration (drug/response curve, 1 nM to 1 µM DAMGO) on HEK293T cells expressing the opioid sensor.

For the substance DAMGO (peptide), the ΔF/F (fluorescence change of the sensor) in assay [1] amounted to 25%. Further, the Kd in assay [2] came to 25 nM.

In general, Kd refers to the constant that tells how readily two partners part at equilibrium.
